Laboratory results published in US20210388105A1 (ELPISCIENCE SUZHOU BIOPHARMA, published 2021).

Experiments:
Assay in all cases: FACS, mutant-EGFP on HEK293F cells
[1] = molecular target: T1, KW27-13 (human CD39 mutant, C-terminal EGFP) (human, UniProt P49961 1-510)
T1 construct: expressed on HEK293F cells; not shown: C-terminal EGFP fusion (vector pCMV3-GFPSpark)
T1 chain: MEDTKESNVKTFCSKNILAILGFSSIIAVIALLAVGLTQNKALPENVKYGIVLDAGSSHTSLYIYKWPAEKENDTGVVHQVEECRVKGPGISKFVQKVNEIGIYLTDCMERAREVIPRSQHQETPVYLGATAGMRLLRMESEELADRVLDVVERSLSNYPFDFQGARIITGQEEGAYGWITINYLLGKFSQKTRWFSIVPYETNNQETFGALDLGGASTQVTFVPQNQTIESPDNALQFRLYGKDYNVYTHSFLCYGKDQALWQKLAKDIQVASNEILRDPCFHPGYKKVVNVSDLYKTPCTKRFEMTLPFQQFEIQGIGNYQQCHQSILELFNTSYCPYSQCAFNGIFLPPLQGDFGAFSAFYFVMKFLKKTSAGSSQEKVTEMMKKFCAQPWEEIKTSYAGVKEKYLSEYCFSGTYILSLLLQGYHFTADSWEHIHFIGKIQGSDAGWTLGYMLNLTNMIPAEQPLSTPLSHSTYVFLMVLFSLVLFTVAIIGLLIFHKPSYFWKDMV
Procedure, shortened: (§1)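 HEK293F cells were transfected with human CD39 mutants carrying C-terminal GFP and used 3 days later. Antibodies were titrated from 100 nM (3-fold, 11 points) and detected by FACS with AlexaFluor647 anti-hIgG. Relative binding was AlexaFluor647 intensity divided by GFP intensity.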

[2] = molecular target: T2, KW27-12 (human CD39 mutant, C-terminal EGFP) (human, UniProt P49961 1-510)
T2 construct: expressed on HEK293F cells; not shown: C-terminal EGFP fusion (vector pCMV3-GFPSpark)
T2 chain: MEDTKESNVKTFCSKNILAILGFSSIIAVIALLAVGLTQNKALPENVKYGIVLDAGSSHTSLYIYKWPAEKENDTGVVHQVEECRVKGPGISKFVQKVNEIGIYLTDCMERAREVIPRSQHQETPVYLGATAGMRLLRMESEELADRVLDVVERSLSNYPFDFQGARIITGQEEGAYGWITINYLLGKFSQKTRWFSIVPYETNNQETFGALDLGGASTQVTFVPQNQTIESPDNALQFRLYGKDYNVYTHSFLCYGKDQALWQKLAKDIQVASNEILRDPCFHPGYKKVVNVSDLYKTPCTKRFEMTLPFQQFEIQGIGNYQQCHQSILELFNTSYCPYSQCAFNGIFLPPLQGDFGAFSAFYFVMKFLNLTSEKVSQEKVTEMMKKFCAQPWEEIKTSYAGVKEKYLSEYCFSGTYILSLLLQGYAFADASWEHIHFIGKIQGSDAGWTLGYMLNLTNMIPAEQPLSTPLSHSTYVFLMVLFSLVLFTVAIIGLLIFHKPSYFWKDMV
Procedure, shortened: as §1

[3] = molecular target: T3, KW27-1 (human CD39 mutant, C-terminal EGFP) (human, UniProt P49961 1-510)
T3 construct: expressed on HEK293F cells; not shown: C-terminal EGFP fusion (vector pCMV3-GFPSpark)
T3 chain: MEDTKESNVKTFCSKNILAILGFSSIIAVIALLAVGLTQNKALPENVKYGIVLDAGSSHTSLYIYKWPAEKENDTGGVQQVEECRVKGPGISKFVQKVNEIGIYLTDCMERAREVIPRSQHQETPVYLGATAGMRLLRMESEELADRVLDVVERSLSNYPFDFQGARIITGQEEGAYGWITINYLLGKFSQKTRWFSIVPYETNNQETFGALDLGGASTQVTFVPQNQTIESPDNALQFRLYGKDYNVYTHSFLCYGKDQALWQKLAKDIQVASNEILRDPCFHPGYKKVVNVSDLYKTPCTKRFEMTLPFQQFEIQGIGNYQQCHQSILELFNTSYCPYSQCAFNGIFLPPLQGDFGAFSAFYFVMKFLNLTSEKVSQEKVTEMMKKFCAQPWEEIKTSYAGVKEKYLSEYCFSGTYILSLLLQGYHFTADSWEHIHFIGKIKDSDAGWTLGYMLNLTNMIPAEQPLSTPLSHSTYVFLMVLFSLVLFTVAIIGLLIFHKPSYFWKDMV
Procedure, shortened: as §1

[4] = molecular target: T4, KW27-5 (human CD39 mutant, C-terminal EGFP) (human, UniProt P49961 1-510)
T4 construct: expressed on HEK293F cells; not shown: C-terminal EGFP fusion (vector pCMV3-GFPSpark)
T4 chain: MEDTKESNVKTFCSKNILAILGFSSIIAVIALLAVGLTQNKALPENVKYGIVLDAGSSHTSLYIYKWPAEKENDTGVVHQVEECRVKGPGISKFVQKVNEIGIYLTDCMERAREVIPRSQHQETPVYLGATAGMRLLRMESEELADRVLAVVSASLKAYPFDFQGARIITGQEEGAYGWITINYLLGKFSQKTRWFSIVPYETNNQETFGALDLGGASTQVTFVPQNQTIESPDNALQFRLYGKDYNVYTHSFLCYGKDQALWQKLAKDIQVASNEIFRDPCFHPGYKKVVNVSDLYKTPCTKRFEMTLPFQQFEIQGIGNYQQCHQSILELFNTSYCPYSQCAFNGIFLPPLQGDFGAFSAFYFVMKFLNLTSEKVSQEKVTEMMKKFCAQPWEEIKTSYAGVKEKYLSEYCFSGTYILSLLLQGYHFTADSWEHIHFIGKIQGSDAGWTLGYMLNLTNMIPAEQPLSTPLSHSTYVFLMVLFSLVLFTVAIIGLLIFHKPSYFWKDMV
Procedure, shortened: as §1

Measured: binding result

B1: c34 (antibody, V domains shown)
VH: EIQVQQSGPELVKPGASVKVSCKASGYSFTDYNMYWVKQSHGKSLEWIGFIDPYNGYTSYNQKFKGKATLTIDKSSSTAFMHLNSLTSEDSAVYYCAIYGYDDAYYFDYWGQGTTLTVSS
VL: QIVLTQSPAIMSASPGEKVTITCSATSSVSYMHWFRQKPGTSPKLWIYSTSNLASGVPARFSGSGSGTSYSLTISRMAAEDAATYYCQQRITYPFTFGSGTKLEIT
notes: its making is not described; also called chimeric antibody c34
binds: [1] | [2] | [3] | [4]

B2: hu23.H5L5 (antibody, V domains shown)
VH: QVQLVQSGAEVKKPGASVKVSCKASGYNLKDTFLHWVRQAPGQGLEWMGRIDPANGNIKYDPKFQGRVTITADTSANTAYMELISLRSEDTAVYYCANSPYYYGSGYRIFDVWGQGTTVTVSS
VL: QIVLTQSPATLSLSPGERATLSCSAFSSVNYMHWYQQKPGQAPRLLIYTTSNLASGIPTRFSGSGSGTSYTLTISSLEPEDFAVYYCQQRSTYPFTFGQGTKLEIK
notes: humanized c23
binds: [1] | [2] | [3] | [4]

B3: Antibody 9-8B (antibody, V domains shown)
VH: QIQLVQSGPELKKPGETVKISCKASGYTFTHYGMNWVKQAPGKGLKWMGWINTYTGELTYADDFKGRFAFSLETSASTAYLQINNLKNEDTATYFCARRAYYRYDYVMDYWGQGTSVTVSS
VL: DIVMTQSQKFMSTSVGDRVSVTCKASHNVGTNVAWYQQKPGQSPKALIYSASYRYSGVPGRFTGSGSGTDFTLTISNVQSEDLAEYFCHQYNNYPYTFGGGTKLEIK
binds: [1] | [2] | [3] | [4]

B4: Antibody T895 (antibody, V domains shown)
VH: EVQLQQSGPELVKPGASVKMSCKASGYTFTDYNMHWVKQSHGRTLEWIGYIVPLNGGSTFNQKFKGRATLTVNTSSRTAYMELRSLTSEDSAAYYCARGGTRFAYWGQGTLVTVSA
VL: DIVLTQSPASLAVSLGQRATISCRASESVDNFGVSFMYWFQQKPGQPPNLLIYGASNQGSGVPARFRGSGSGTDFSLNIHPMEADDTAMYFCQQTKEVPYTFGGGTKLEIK
notes: also called 31895
binds: [1] | [2] | [3] | [4]

B5: c35 (antibody, V domains shown)
VH: EVRLQQSGAELVKPGASVKLSCTASGFNIEDTYVHWMKQRPEQGLEWIGRIDPAIDNSKYDPKFQGKATITAVSSSNTAYLQLSSLTSEDTAVYYCALYDGYNVYAMDYWGQGTSVTVSS
VL: DIVMTQAAFSNPVTLGTSASISCRSSKNLLHSNGITYLYWYLQRPGQSPQLLIYRASTLASGVPNRFSGSESGTDFTLRISRVEAEDVGVYYCAQLLELPHTFGGGTKLEIK
notes: its making is not described; also called chimeric antibody c35
binds: [1] | [2] | [3] | [4]
